33 molecules from patent US20250011433A1 (GLIKNIK, published 2025) can be followed below.

Where a chain is given by its changes, count along the chain named. Names and notes keep the numbering of the source.

First the molecules themselves.
B1: G1068 (Fc fusion)
chain: EPKSCDKTHTCPPCPAPELLGGPSVFLFPPKPKDTLMISRTPEVTCVVVDVEFEDPEVKFNWYVDGVEVHNAKTKPREEQYNSAYRVVSVLTVLHQDWLNGKEYKCKVTNKALPAPIEKTISKAKGQPREPQVYTLPPSRDELTKNQVSLTCLVKGFYPSDIAVEWESNGQPENNYKTTPPVLDSDGSFFLYSKLTVDKSRWQQGNVFSCSVMHEALHNHYTQKSLSLSPGKERKCCVECPPCP
notes: G045c background, S267E/H268F/S324T/T299A; leader 1-20 cleaved
B2: G1103 (Fc fusion)
chain: B1 chain with E18P, G21E, E52S, A84T
notes: G045c background, E233P/G236E/H268F/S324T; leader 1-20 cleaved
B3: G1114 (Fc fusion)
chain: B1 chain with E18P, G21Q, E52D, A84T
notes: G045c background, E233P/G236Q/S267D/H268F/S324T; leader 1-20 cleaved
B4: G1125 (Fc fusion)
chain: B1 chain with E18P, E52H, A84T
notes: G045c background, E233P/S267H/H268F/S324T; leader 1-20 cleaved
B5: G1089 (Fc fusion)
chain: B1 chain with E18P, G21R, E52S, A84T
notes: G045c background, E233P/G236R/H268F/S324T; leader 1-20 cleaved
B6: G1092 (Fc fusion)
chain: B1 chain with E52D
notes: G045c background, S267D/H268F/S324T/T299A; leader 1-20 cleaved
B7: G1130 (Fc fusion)
chain: B1 chain with E18P, G21N, E52K, A84T
notes: G045c background, E233P/G236N/S267K/H268F/S324T; leader 1-20 cleaved
B8: G1088 (Fc fusion)
chain: B1 chain with E18P, G21Q, E52S, A84T
notes: G045c background, E233P/G236Q/H268F/S324T; leader 1-20 cleaved
B9: G1122 (Fc fusion)
chain: B1 chain with E18P, G21H, E52Q, A84T
notes: G045c background, E233P/G236H/S267Q/H268F/S324T; leader 1-20 cleaved
B10: G1118 (Fc fusion)
chain: B1 chain with E18P, G21Q, E52Q, A84T
notes: G045c background, E233P/G236Q/S267Q/H268F/S324T; leader 1-20 cleaved
B11: G1107 (Fc fusion)
chain: B1 chain with E52H
notes: G045c background, S267H/H268F/S324T/T299A; leader 1-20 cleaved
B12: G1124 (Fc fusion)
chain: B1 chain with E18P, G21K, E52K, A84T
notes: G045c background, E233P/G236K/S267K/H268F/S324T; leader 1-20 cleaved
B13: G1101 (Fc fusion)
chain: B1 chain with E18P, E52D, A84T
notes: G045c background, E233P/S267D/H268F/S324T; leader 1-20 cleaved
B14: G1094 (Fc fusion)
chain: B1 chain with E52Q
notes: G045c background, S267Q/H268F/S324T/T299A; leader 1-20 cleaved
B15: G1108 (Fc fusion)
chain: B1 chain with E18P, E52N, A84T
notes: G045c background, E233P/S267N/H268F/S324T; leader 1-20 cleaved
B16: G1129 (Fc fusion)
chain: B1 chain with E18P, G21N, A84T
notes: G045c background, E233P/G236N/S267E/H268F/S324T; leader 1-20 cleaved
B17: G1117 (Fc fusion)
chain: B1 chain with E18P, G21D, E52D, A84T
notes: G045c background, E233P/G236D/S267D/H268F/S324T; leader 1-20 cleaved
B18: G1074 (Fc fusion)
chain: B1 chain with E52D, N82A, A84T
notes: G045c background, S267D/H268F/S324T/N297A; leader 1-20 cleaved
B19: G1111 (Fc fusion)
chain: B1 chain with E18P, G21D, E52Q, A84T
notes: G045c background, E233P/G236D/S267Q/H268F/S324T; leader 1-20 cleaved
B20: G1128 (Fc fusion)
chain: B1 chain with E18P, G21K, E52N, A84T
notes: G045c background, E233P/G236K/S267N/H268F/S324T; leader 1-20 cleaved
B21: G1102 (Fc fusion)
chain: B1 chain with E18P, E52Q, A84T
notes: G045c background, E233P/S267Q/H268F/S324T; leader 1-20 cleaved
B22: G1104 (Fc fusion)
chain: B1 chain with E18P, G21D, E52S, A84T
notes: G045c background, E233P/G236D/H268F/S324T; leader 1-20 cleaved
B23: G1095 (Fc fusion)
chain: B1 chain with E52N
notes: G045c background, S267N/H268F/S324T/T299A; leader 1-20 cleaved
B24: G1105 (Fc fusion)
chain: B1 chain with E18P, G21N, E52S, A84T
notes: G045c background, E233P/G236N/H268F/S324T; leader 1-20 cleaved
B25: G1120 (Fc fusion)
chain: B1 chain with E18P, G21R, E52Q, A84T
notes: G045c background, E233P/G236R/S267Q/H268F/S324T; leader 1-20 cleaved
B26: G1110 (Fc fusion)
chain: B1 chain with E18P, G21D, E52R, A84T
notes: G045c background, E233P/G236D/S267R/H268F/S324T; leader 1-20 cleaved
B27: G1115 (Fc fusion)
chain: B1 chain with E18P, G21E, E52R, A84T
notes: G045c background, E233P/G236E/S267R/H268F/S324T; leader 1-20 cleaved
B28: G1069 (Fc fusion)
chain: B1 chain with E52S, N82A, A84T
notes: G045c background, H268F/S324T/N297A; leader 1-20 cleaved
B29: G1131 (Fc fusion)
chain: B1 chain with E18P, G21R, E52N, A84T
notes: G045c background, E233P/G236R/S267N/H268F/S324T; leader 1-20 cleaved
B30: G1075 (Fc fusion)
chain: B1 chain with E52Q, N82A, A84T
notes: G045c background, S267Q/H268F/S324T/N297A; leader 1-20 cleaved
B31: G1082 (Fc fusion)
chain: B1 chain with E18P, G21H, E52S, A84T
notes: G045c background, E233P/G236H/H268F/S324T; leader 1-20 cleaved
B32: G1121 (Fc fusion)
chain: B1 chain with E18P, G21D, E52K, A84T
notes: G045c background, E233P/G236D/S267K/H268F/S324T; leader 1-20 cleaved
B33: G1106 (Fc fusion)
chain: B1 chain with E18P, G21K, E52S, A84T
notes: G045c background, E233P/G236K/H268F/S324T; leader 1-20 cleaved

T2 sequence (P12314 16-288 limits assumed): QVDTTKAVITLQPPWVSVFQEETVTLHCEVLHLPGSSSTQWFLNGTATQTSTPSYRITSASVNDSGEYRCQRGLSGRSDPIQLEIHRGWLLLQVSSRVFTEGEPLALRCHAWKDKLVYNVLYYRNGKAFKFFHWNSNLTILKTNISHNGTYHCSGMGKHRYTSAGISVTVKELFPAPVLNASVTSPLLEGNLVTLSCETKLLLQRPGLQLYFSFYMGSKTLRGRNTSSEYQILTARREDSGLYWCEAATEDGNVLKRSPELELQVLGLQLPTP

One test concerns the target T1, FcγRIIb (UniProt P31994 46-217, limits assumed).
T1 sequence (looked up): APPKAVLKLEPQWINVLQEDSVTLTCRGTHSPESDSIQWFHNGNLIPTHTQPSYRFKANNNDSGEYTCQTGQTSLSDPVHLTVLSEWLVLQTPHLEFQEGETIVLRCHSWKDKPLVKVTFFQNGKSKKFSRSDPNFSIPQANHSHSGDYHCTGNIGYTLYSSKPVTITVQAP
In words: BLI (Octet). The method, then:
(§1) Binding of complement-preferential stradomers or parent stradomer G045c to FcγRI, FcγRIIb, FcγRIIIa, FcγRIIa, or FcRn was assessed. RU values of dissociation were measured by biolayer interferometry using a ForteBio Octet instrument. His-tagged receptor proteins were bound to the sensor tip in 1× kinetic analysis buffer from ForteBio after which the on rate of the receptor/protein was measured by transferring the sensor tip to a 1× kinetics buffer containing the purified stradomer of choice. Off rate was measured by transferring the sensor tip to a 1× kinetics buffer, and RU value was calculated from the measured maximum binding using the ForteBio software. Biolayer interferometry detects the binding between a ligand immobilized on the biosensor tip surface and an analyte in solution. When binding occurs it produces an increase in optical thickness at the biosensor tip, which results in a wavelength shift (detected as a response unit of “RU”). The maximum binding level (RU max) is the maximum possible amount of sample binding at equilibrium that saturates the amount of ligand on the sensor surface. The RU 300 is the residual sample binding after 300 seconds of dissociation and is useful to characterize the rate of dissociation of the test article from the test ligand.
(§2) For each stradomer in Tables 5-9, the level of canonical FcγR binding, complement C1q binding, and CDC inhibition were determined according to the methods described in Example 1.
On the technique in general: BLI is a label-free optical method that tracks binding on a fibre tip over time.
B1: the binding result is “binds”.

In the case of B2, the binding result is “binds”.

As to B3, the binding result is “binds”.

Consider B4, for which the binding result was “binds”.

Regarding B5, the binding result is recorded as “binds”.

B6: the binding result is recorded as “binds”.

On to B7, for which the binding result was “binds”.

As for B8, the binding result is “binds”.

On to B9, for which the binding result was “binds”.

In the case of B10, the binding result is “binds”.

Consider B11, for which the binding result is given as “binds”.

B12: the binding result was “binds”.

With B13, the binding result is listed as “binds”.

With B14, the binding result is “binds”.

As to B15, the binding result is recorded as “binds”.

B16: the binding result is “binds”.

Turning to B17, the binding result is “binds”.

With B18, the binding result is recorded as “binds”.

As for B19, the binding result is given as “binds”.

For B20, the binding result is reported as “binds”.

In the case of B21, the binding result is given as “binds”.

In the case of B22, the binding result is reported as “binds”.

Regarding B23, the binding result is reported as “binds”.

In the case of B24, the binding result is “binds”.

Another test concerns the target T2, FcγRI (UniProt P12314 16-288).
T2 construct: also called CD64
As to the kind of experiment: BLI (Octet). The method, then: as §1, §2
Turning to B1, the binding result is “binds”.

Consider B2, for which the binding result is “binds”.

On to B3, for which the binding result was “binds”.

Take B4: the binding result is on record as “binds”.

B25: the binding result is on record as “binds”.

With B5, the binding result is “binds”.

For B26, the binding result is given as “binds”.

As for B27, the binding result is listed as “binds”.

In the case of B6, the binding result is recorded as “binds”.

Take B28: the binding result is given as “binds”.

As for B7, the binding result is on record as “binds”.

On to B8, for which the binding result is on record as “binds”.

In the case of B9, the binding result is “binds”.

For the molecule B10, the binding result is “binds”.

For B29, the binding result was “binds”.

For the molecule B11, the binding result is reported as “binds”.

For B12, the binding result was “binds”.

As to B13, the binding result was “binds”.

As to B14, the binding result is recorded as “binds”.

Regarding B30, the binding result is given as “binds”.

Regarding B31, the binding result is given as “binds”.

As for B15, the binding result was “binds”.

For B16, the binding result was “binds”.

As for B17, the binding result is recorded as “binds”.

Take B18: the binding result is on record as “binds”.

With B19, the binding result is listed as “binds”.

B20: the binding result is “binds”.

Turning to B21, the binding result was “binds”.

Turning to B32, the binding result is listed as “binds”.

On to B22, for which the binding result is listed as “binds”.

Take B33: the binding result is “binds”.

B23: the binding result is “binds”.

Turning to B24, the binding result is recorded as “binds”.

In the next test the target is C1q (UniProt P02745 23-245; P02746 28-253; P02747 29-245). In words: cell-based or functional assay.
C1q, sequence (P02745 23-245 limits assumed, chain 1 of 3): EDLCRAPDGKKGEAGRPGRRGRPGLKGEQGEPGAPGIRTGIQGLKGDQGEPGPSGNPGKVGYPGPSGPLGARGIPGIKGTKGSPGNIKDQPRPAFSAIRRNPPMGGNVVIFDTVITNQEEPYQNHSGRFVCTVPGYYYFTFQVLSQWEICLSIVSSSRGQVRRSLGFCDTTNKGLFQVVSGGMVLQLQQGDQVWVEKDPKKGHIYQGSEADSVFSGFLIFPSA
C1q, sequence (P02746 28-253 limits assumed, chain 2 of 3): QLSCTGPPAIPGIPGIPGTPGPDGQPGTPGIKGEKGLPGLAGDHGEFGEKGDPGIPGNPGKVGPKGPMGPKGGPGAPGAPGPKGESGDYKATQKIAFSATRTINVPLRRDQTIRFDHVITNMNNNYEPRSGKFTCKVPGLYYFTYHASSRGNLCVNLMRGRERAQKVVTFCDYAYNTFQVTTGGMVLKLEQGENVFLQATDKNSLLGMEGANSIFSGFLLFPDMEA
C1q, sequence (P02747 29-245 limits assumed, chain 3 of 3): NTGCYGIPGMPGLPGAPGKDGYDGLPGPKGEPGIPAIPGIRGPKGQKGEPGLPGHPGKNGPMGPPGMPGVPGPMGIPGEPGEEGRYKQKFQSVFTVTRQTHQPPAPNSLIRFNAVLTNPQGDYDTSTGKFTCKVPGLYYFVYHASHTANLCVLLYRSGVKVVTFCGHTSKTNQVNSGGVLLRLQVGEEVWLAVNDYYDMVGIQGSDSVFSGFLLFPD
Turning to B2, the “CDC Inhibition (EC50, µg/mL)” value came to 5 µg/mL.

For B3, the “CDC Inhibition (EC50, µg/mL)” value amounted to 5 µg/mL.

On to B4, for which the “CDC Inhibition (EC50, µg/mL)” value was 5 µg/mL.

As for B26, the “CDC Inhibition (EC50, µg/mL)” value is 25 µg/mL.

As to B27, the “CDC Inhibition (EC50, µg/mL)” value is 50 µg/mL.

Turning to B8, the “CDC Inhibition (EC50, µg/mL)” value stood at 5 µg/mL.

In the case of B9, the “CDC Inhibition (EC50, µg/mL)” value was 5 µg/mL.

Consider B29, for which the “CDC Inhibition (EC50, µg/mL)” value is 15 µg/mL.

For B11, the “CDC Inhibition (EC50, µg/mL)” value came to 12.5 µg/mL.

B13: the “CDC Inhibition (EC50, µg/mL)” value stood at 5 µg/mL.

Regarding B14, the “CDC Inhibition (EC50, µg/mL)” value came out at 12.5 µg/mL.

As to B30, the “CDC Inhibition (EC50, µg/mL)” value is 15 µg/mL.

In the case of B31, the “CDC Inhibition (EC50, µg/mL)” value amounted to 5 µg/mL.

B15: the “CDC Inhibition (EC50, µg/mL)” value turned out to be 5 µg/mL.

In the case of B16, the “CDC Inhibition (EC50, µg/mL)” value stood at 5 µg/mL.

In the case of B17, the “CDC Inhibition (EC50, µg/mL)” value turned out to be 5 µg/mL.

B19: the “CDC Inhibition (EC50, µg/mL)” value came to 5 µg/mL.

With B21, the “CDC Inhibition (EC50, µg/mL)” value came out at 7.5 µg/mL.

With B22, the “CDC Inhibition (EC50, µg/mL)” value was found to be 5 µg/mL.

Take B23: the “CDC Inhibition (EC50, µg/mL)” value is 15 µg/mL.

For the molecule B24, the “CDC Inhibition (EC50, µg/mL)” value is 5 µg/mL.
